This data set has as its target MutSα (MSH2 subunit);MutSα (MSH6 subunit) (human;human, UniProt P43246;P52701 1-934;1-1360, |). As to the kind of experiment: EMSA. For orientation: Mobility shift assays separate free from complexed probe on a gel.

B1: rC/G (dsDNA)
DNA 1: CCAGACGTCTGTCGACGTTGGGAAGCTTGAG
DNA 2: CTCAAGCTTCCCAACGTCGACAGACGTCTGG
modifications: single ribocytidine at position 13 of strand 1 (rC opposite G)
Take B1: the binding result is recorded as “no binding”.

These data come from paper PMC3653069.
